Laboratory results as given in patent US20240116984A1 (UNIVERSITY OF NOTRE DAME DU LAC, published 2024).
Starred links: 1 amine or outer side, 2 acyl side, 3 side chain; linkers in the order of their positions; H or OH if unused. Non-standard residues stand in square brackets, D forms with d. Primed or numbered codes have the meaning given here. aTyr = Tyr with backbone N-amino (N-aminated amide nitrogen), NN([C@@H](Cc1ccc(O[*:3])cc1)C(=O)[*:2])[*:1]; aIle′ = Ile with backbone N-amino (N-aminated amide nitrogen), CC[C@H](C)[C@@H](C(=O)[*:2])N(N)[*:1]; aVal = Val with backbone N-amino (N-aminated amide nitrogen), CC(C)[C@@H](C(=O)[*:2])N(N)[*:1]; N(NH2)Lys = NCCCC[C@H](NN)C(=O)O

B1: Compound 13, Ac-Val-Gln-Ile-aVal-Tyr-aLys-NH2 (peptide)
peptide: Ac-VQI[aVal]Y[N(NH2)Lys]-NH2
SMILES: CC[C@H](C)[C@H](NC(=O)[C@H](CCC(N)=O)NC(=O)[C@@H](NC(C)=O)C(C)C)C(=O)N(N)[C@H](C(=O)N[C@@H](Cc1ccc(O)cc1)C(=O)N(N)[C@@H](CCCCN)C(N)=O)C(C)C
B2: Compound 6, Ac-Val-Gln-aIle-Val-Tyr-Lys-NH2 (peptide)
peptide: Ac-VQ[aIle′]VYK-NH2
SMILES: CC[C@H](C)[C@@H](C(=O)N[C@H](C(=O)N[C@@H](Cc1ccc(O)cc1)C(=O)N[C@@H](CCCCN)C(N)=O)C(C)C)N(N)C(=O)[C@H](CCC(N)=O)NC(=O)[C@@H](NC(C)=O)C(C)C
B3: Compound 4, Ac-aVal-Gln-aIle-Ile-Asn-Lys-NH2 (peptide)
peptide: Ac-[aVal]Q[aIle′]INK-NH2
SMILES: CC[C@H](C)[C@H](NC(=O)[C@H]([C@@H](C)CC)N(N)C(=O)[C@H](CCC(N)=O)NC(=O)[C@H](C(C)C)N(N)C(C)=O)C(=O)N[C@@H](CC(N)=O)C(=O)N[C@@H](CCCCN)C(N)=O
B4: Compound 12, Ac-Val-Gln-aIle-Val-aTyr-Lys-NH2 (peptide)
peptide: Ac-VQ[aIle′]V[aTyr]K-NH2
SMILES: CC[C@H](C)[C@@H](C(=O)N[C@H](C(=O)N(N)[C@@H](Cc1ccc(O)cc1)C(=O)N[C@@H](CCCCN)C(N)=O)C(C)C)N(N)C(=O)[C@H](CCC(N)=O)NC(=O)[C@@H](NC(C)=O)C(C)C
B5: Compound 2, Ac-Val-Gln-aIle-Ile-Asn-Lys-NH2 (peptide)
peptide: Ac-VQ[aIle′]INK-NH2
SMILES: CC[C@H](C)[C@H](NC(=O)[C@H]([C@@H](C)CC)N(N)C(=O)[C@H](CCC(N)=O)NC(=O)[C@@H](NC(C)=O)C(C)C)C(=O)N[C@@H](CC(N)=O)C(=O)N[C@@H](CCCCN)C(N)=O
B6: Compound 5, Ac-aVal-Gln-Ile-Val-Tyr-Lys-NH2 (peptide)
peptide: Ac-[aVal]QIVYK-NH2
SMILES: CC[C@H](C)[C@H](NC(=O)[C@H](CCC(N)=O)NC(=O)[C@H](C(C)C)N(N)C(C)=O)C(=O)N[C@H](C(=O)N[C@@H](Cc1ccc(O)cc1)C(=O)N[C@@H](CCCCN)C(N)=O)C(C)C

Molecular target: Human tauP301L (0N4R), recombinant, N-terminal His tag (human, UniProt P10636 2-758)
Sequence (P10636 other isoform, or with tags, fused parts or gaps): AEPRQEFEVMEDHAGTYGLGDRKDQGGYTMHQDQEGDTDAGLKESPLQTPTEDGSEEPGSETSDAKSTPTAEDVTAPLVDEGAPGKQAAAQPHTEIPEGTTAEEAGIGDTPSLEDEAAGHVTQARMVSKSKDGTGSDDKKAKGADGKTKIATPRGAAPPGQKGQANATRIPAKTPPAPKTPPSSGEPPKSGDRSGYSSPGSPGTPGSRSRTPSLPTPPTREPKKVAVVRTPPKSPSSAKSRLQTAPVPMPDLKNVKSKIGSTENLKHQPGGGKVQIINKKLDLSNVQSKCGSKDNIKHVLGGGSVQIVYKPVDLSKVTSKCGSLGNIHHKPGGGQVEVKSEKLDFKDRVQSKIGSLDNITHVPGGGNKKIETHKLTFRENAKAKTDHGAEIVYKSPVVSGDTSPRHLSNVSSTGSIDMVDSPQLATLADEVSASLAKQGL
Test: cell-based or functional assay

Row | Binder | end-point ThT fluorescence of heparin-induced tau aggregation (Tau 10 µM: Inhibitor 20 µM, 48 h) [%] | fibril capping IC50 in cells (mature tauP301L fibrils incubated 36 h with inhibitor, then HEK293 tau-RD(LM)-YFP cells) [µM]
1 | B1 | ≤ 50 | ~5
2 | B2 | ≤ 50 | –
3 | B3 | ≤ 50 | –
4 | B4 | ≤ 50 | ~5
5 | B5 | ≤ 50 | –
6 | B6 | ≤ 50 | –
